Molecular target: Mouse IMPαΔIBB (residues 70–529) (mouse, UniProt P52293 70-529)
Assay: crystal structure; complex of IMPαΔIBB and Prp20 NLS (GST tag removed by thrombin) in 20 mM Tris pH 7.8, 125 mM NaCl, 20 mg/mL; crystals in 500 mM sodium citrate pH 6–8, 10 mM DTT; 2.1 Å
Conditions: both partners purified

- binding result: binds
B1: Prp20 (S. cerevisiae RanGEF) NLS (residues 3–23) (peptide)
chain: KRTVATNGDASGAHRAKKMSK
notes: Prp20 (RanGEF), S. cerevisiae, bipartite NLS, residues 3-23; Only KR4 and RAKKMSK23 are in the final model; also called Prp20 NLS; Prp20NLS
